Reference: article PMC10750099, “Mapping immunological and host receptor binding determinants of SARS-CoV spike protein utilizing the Qubevirus platform” (The Journal of Biological Chemistry, 2023)

Biological target: T1, recombinant human angiotensin-converting enzyme 2 (human, UniProt Q9BYF1 18-740)
T1 construct: also called rhACE2; hACE2
Assay: ELISA
Details: both partners purified

T1 sequence (Q9BYF1 18-740): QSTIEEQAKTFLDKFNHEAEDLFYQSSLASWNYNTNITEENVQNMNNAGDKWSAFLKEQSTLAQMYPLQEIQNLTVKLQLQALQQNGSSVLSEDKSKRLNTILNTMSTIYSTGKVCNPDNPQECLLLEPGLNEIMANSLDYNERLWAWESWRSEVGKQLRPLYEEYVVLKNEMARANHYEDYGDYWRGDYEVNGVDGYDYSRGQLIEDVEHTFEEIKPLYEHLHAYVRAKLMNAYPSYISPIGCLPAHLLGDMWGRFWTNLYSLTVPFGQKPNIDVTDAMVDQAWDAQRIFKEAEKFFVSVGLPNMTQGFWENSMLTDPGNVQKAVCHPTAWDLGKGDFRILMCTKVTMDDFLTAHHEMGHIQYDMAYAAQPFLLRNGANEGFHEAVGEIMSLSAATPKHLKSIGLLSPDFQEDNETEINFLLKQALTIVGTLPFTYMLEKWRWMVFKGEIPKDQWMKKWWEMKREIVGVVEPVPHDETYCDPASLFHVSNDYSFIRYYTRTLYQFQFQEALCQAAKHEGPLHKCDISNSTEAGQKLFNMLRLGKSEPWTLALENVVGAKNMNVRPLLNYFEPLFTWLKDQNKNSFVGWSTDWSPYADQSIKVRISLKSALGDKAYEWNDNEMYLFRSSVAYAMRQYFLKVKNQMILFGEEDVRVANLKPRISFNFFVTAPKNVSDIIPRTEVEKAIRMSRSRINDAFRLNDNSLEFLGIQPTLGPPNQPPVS

B1: recombinant Qβ phage displaying the rhACE2-binding motif S437-492 of SARS-CoV spike fragment F6 on A1 (domain or fragment)
chain: NYKYRYLRHGKLRPFERDISNVPFSPDGKPCTPPALNCYWPLNDYGFYTTTGIGYQ
notes: also called GF6 motif (S437-492)
binding result: binds
